Results: the Immune Epitope Database (IEDB)

Experiments:
HLA-A*02:01 [1] = assay: IEDB peptide-MHC binding, purified MHC/direct/fluorescence; filed as Kd, often an IC50 or EC50 that approximates it; ≥ and ≤ were set here for values at or beyond the usual limits of such assays
HLA-B*27:03 = assay: IEDB peptide-MHC binding, purified MHC/competitive/fluorescence; filed as Kd, often an IC50 or EC50 that approximates it; ≥ and ≤ were set here for values at or beyond the usual limits of such assays; conditions: source organism: Reston ebolavirus - Reston (1989)
HLA-B*51:01 [2] = assay: as above; conditions: source organism: Reston ebolavirus - Reston (1989)
HLA-B*57:01 [3] = assay: as above; conditions: source organism: Reston ebolavirus - Reston (1989)
HLA-B*39:01 = assay: as above; conditions: source organism: Reston ebolavirus - Reston (1989)
HLA-A*26:01 [4] = assay: as above; conditions: source organism: Reston ebolavirus - Reston (1989)
HLA-B*18:01 = assay: as above; conditions: source organism: Reston ebolavirus - Reston (1989)
HLA-B*46:01 = assay: as above; conditions: source organism: Reston ebolavirus - Reston (1989)
HLA-A*03:01 = assay: IEDB peptide-MHC binding, purified MHC/direct/fluorescence; filed as Kd, often an IC50 or EC50 that approximates it; ≥ and ≤ were set here for values at or beyond the usual limits of such assays
HLA-A*69:01 = assay: as above
HLA-A*01:01 [5] = assay: as above
HLA-B*07:02 [6] = assay: as above
HLA-A*24:03 = assay: as above
HLA-B*40:01 = assay: as above
HLA-B*27:05 = assay: as above
HLA-B*44:02 = assay: as above; conditions: source organism: Vibrio vulnificus
HLA-A*11:01 [7] = assay: as above
HLA-A*26:01 [8] = assay: as above
HLA-B*15:01 [9] = assay: as above
HLA-B*58:01 = assay: as above
HLA-B*08:01 = assay: as above
HLA-A*31:01 = assay: as above
HLA-A*01:01 [10] = assay: IEDB peptide-MHC binding, purified MHC/competitive/radioactivity; filed as Kd, often an IC50 or EC50 that approximates it; ≥ and ≤ were set here for values at or beyond the usual limits of such assays; conditions: source organism: Dengue virus 1 Brazil/97-11/1997
HLA-B*35:01 = assay: as above
HLA-A*30:01 = assay: as above; conditions: source organism: Dengue virus 1 Brazil/97-11/1997
HLA-A*26:01 [11] = assay: as above; conditions: source organism: Dengue virus 1 Brazil/97-11/1997
HLA-B*15:01 [12] = assay: as above; conditions: source organism: Dengue virus 1 Brazil/97-11/1997
HLA-A*30:02 = assay: as above; conditions: source organism: Dengue virus 1 Brazil/97-11/1997
HLA-B*07:02 [13] = assay: as above
HLA-B*51:01 [14] = assay: as above
HLA-B*53:01 = assay: as above
HLA-B*54:01 = assay: as above
HLA-A*11:01 [15] = assay: IEDB peptide-MHC binding, purified MHC/competitive/fluorescence; ≥ and ≤ were set here for values at or beyond the usual limits of such assays
HLA-A*02:01 [16] = assay: as above; conditions: source organism: Zaire ebolavirus
HLA-A*24:02 = assay: as above; conditions: source organism: Zaire ebolavirus
HLA-B*57:01 [17] = assay: IEDB peptide-MHC binding, purified MHC/direct/fluorescence; filed as Kd, often an IC50 or EC50 that approximates it; ≥ and ≤ were set here for values at or beyond the usual limits of such assays; conditions: source organism: Mammarenavirus lassaense
HLA-B*15:17 = assay: as above; conditions: source organism: Mammarenavirus lassaense
[18] = source organism: Vibrio vulnificus
[19] = source organism: Mammarenavirus lassaense
[20] = source organism: Zaire ebolavirus
[21] = source organism: Vaccinia virus WR
[22] = source organism: Triticum aestivum
[23] = source organism: Corynebacterium glutamicum
[24] = source organism: Mammarenavirus juninense

Work on LIMEFNSLL yielded a Kd (HLA-A*02:01 [1]; source organism: Reston ebolavirus - Reston) of 0.0052 µM, a Kd (HLA-B*27:03) of no less than 20 µM and a Kd (HLA-B*51:01 [2]) of no less than 20 µM. The Kd (HLA-B*57:01 [3]) was no less than 20 µM, the Kd (HLA-B*39:01) was no less than 20 µM and the Kd (HLA-A*26:01 [4]) was no less than 20 µM. For the same sequence, the Kd (HLA-B*18:01) was no less than 20 µM and the Kd (HLA-B*46:01) was no less than 20 µM.
STDTRHIPQ showed a Kd (HLA-A*03:01; [18]) of no less than 20 µM, a Kd (HLA-A*69:01; [18]) of no less than 20 µM and a Kd (HLA-A*01:01 [5]; [18]) of 4.41 µM. The Kd (HLA-B*07:02 [6]; [18]) was no less than 20 µM, the Kd (HLA-A*24:03; [18]) was no less than 20 µM and the Kd (HLA-B*40:01; [18]) was no less than 20 µM. The Kd (HLA-B*27:05; [18]) was no less than 20 µM, the Kd (HLA-B*44:02) was no less than 20 µM and the Kd (HLA-A*11:01 [7]; [18]) was no less than 20 µM. The Kd (HLA-A*02:01 [1]; [18]) was no less than 20 µM, the Kd (HLA-A*26:01 [8]; [18]) was no less than 20 µM and the Kd (HLA-B*15:01 [9]; [18]) was no less than 20 µM. For the same sequence, the Kd (HLA-B*58:01; [18]) was no less than 20 µM, the Kd (HLA-B*08:01; [18]) was no less than 20 µM and the Kd (HLA-A*31:01; [18]) was no less than 20 µM.
Sequence FTMAHRKPTY has a Kd (HLA-A*01:01 [10]) of 9.16 µM, a Kd (HLA-B*35:01; source organism: Dengue virus 1 Brazil/97-11/1997) of 0.698 µM and a Kd (HLA-A*30:01) of 2.27 µM. For the same sequence, the Kd (HLA-A*26:01 [11]) was 0.476 µM, the Kd (HLA-B*15:01 [12]) was 0.313 µM and the Kd (HLA-A*30:02) was 0.744 µM.
FPAGLTYSQL gave a Kd (HLA-B*07:02 [13]; [19]) of 0.155 µM, a Kd (HLA-B*51:01 [14]; [19]) of 8.28 µM and a Kd (HLA-B*53:01; [19]) of 0.111 µM. For the same sequence, the Kd (HLA-B*35:01; [19]) was 0.115 µM and the Kd (HLA-B*54:01; [19]) was 0.603 µM.
Sequence IIHDFVDKT has an IC50 (HLA-A*11:01 [15]; [20]) of no less than 148 µM, an IC50 (HLA-A*02:01 [16]) of 14.1 µM and an IC50 (HLA-A*24:02) of no less than 287 µM.
For PSVIEEWKK, the IC50 (HLA-A*11:01 [15]; [21]) was no less than 107 µM.
For TTAAGPPKA, the IC50 (HLA-A*11:01 [15]; [20]) was 40.6 µM and the IC50 (HLA-A*02:01 [16]) was 11.7 µM.
Sequence QPLSQVSF has a Kd (HLA-B*07:02 [13]; [22]) of 6.87 µM, a Kd (HLA-B*51:01 [14]; [22]) of 12.6 µM and a Kd (HLA-B*53:01; [22]) of no less than 37.5 µM. It also gave a Kd (HLA-B*35:01; [22]) of 15 µM and a Kd (HLA-B*54:01; [22]) of no less than 87.7 µM.
In the case of VLPVPGASV, the Kd (HLA-A*03:01; [23]) is reported as no less than 20 µM, the Kd (HLA-A*69:01; [23]) is reported as no less than 20 µM and the Kd (HLA-A*01:01 [5]; [23]) is reported as no less than 20 µM. It also gave a Kd (HLA-B*07:02 [6]; [23]) of 10.3 µM, a Kd (HLA-A*24:03; [23]) of no less than 20 µM and a Kd (HLA-B*40:01; [23]) of no less than 20 µM. It also gave a Kd (HLA-B*27:05; [23]) of no less than 20 µM, a Kd (HLA-A*11:01 [7]; [23]) of no less than 20 µM and a Kd (HLA-A*02:01 [1]; [23]) of 0.0637 µM. The Kd (HLA-A*26:01 [8]; [23]) was no less than 20 µM, the Kd (HLA-B*15:01 [9]; [23]) was 3.81 µM and the Kd (HLA-B*58:01; [23]) was no less than 20 µM. It also gave a Kd (HLA-B*08:01; [23]) of no less than 20 µM and a Kd (HLA-A*31:01; [23]) of no less than 20 µM.
Sequence HPDMDSLMI has a Kd (HLA-B*07:02 [13]; [24]) of 1.72 µM, a Kd (HLA-B*51:01 [14]; [24]) of 2.9 µM and a Kd (HLA-B*53:01; [24]) of 0.0796 µM. For the same sequence, the Kd (HLA-B*35:01; [24]) was 2.01 µM and the Kd (HLA-B*54:01; [24]) was no less than 23.2 µM.
KSFLWTQSL gave a Kd (HLA-B*57:01 [17]) of 0.029 µM, a Kd (HLA-B*15:17) of no more than 0.001 µM and a Kd (HLA-B*58:01; [19]) of 0.042 µM.
Sequence YPDLNFDNTY has a Kd (HLA-B*07:02 [13]; [21]) of no less than 69.6 µM, a Kd (HLA-B*51:01 [14]; [21]) of no less than 69.6 µM and a Kd (HLA-B*53:01; [21]) of 0.0222 µM. The Kd (HLA-B*35:01; [21]) was 0.0184 µM and the Kd (HLA-B*54:01; [21]) was 1.75 µM.
